Data reported in publication doi:10.1101/829945.
pKd: −log10 of the molar value.

Target: fibrin fragment E
Assay: SPR

soluble recombinant human αVβ3-integrin (from UniProt P06756 31-1048; P05106 27-718) (receptor)
pKd: 7.70 to 8.70
